First the molecules themselves.
B1: H183/L072 VL R54K (antibody, name in Kabat numbering, V domains shown)
VH: QVQLVESGGGLVQPGRSLRLSCAASGFTFSNAWMHWVRQAPGKGLEWVAQIKDKGNAYAAYYAPSVKGRFTISRDDSKNSIYLQMNSLKTEDTAVYYCHYVHYASASTVLPAFGVDAWGQGTTVTVSS
VL: DIVMTQSPLSLPVTPGEPASISCQASQELVHMNRNTYLHWYQQKPGQAPRLLIYKVSNKFPGVPDRFSGSGSGTDFTLKISRVEAEDVGVYYCAQGTSVPFTFGQGTKLEIK
notes: Dual-Ig
B2: H183/L072 VL S26H (antibody, name in Kabat numbering, V domains shown)
VH: QVQLVESGGGLVQPGRSLRLSCAASGFTFSNAWMHWVRQAPGKGLEWVAQIKDKGNAYAAYYAPSVKGRFTISRDDSKNSIYLQMNSLKTEDTAVYYCHYVHYASASTVLPAFGVDAWGQGTTVTVSS
VL: DIVMTQSPLSLPVTPGEPASISCQAHQELVHMNRNTYLHWYQQKPGQAPRLLIYKVSNRFPGVPDRFSGSGSGTDFTLKISRVEAEDVGVYYCAQGTSVPFTFGQGTKLEIK
notes: Dual-Ig
B3: H183/L072 VL S26G (antibody, name in Kabat numbering, V domains shown)
VH: QVQLVESGGGLVQPGRSLRLSCAASGFTFSNAWMHWVRQAPGKGLEWVAQIKDKGNAYAAYYAPSVKGRFTISRDDSKNSIYLQMNSLKTEDTAVYYCHYVHYASASTVLPAFGVDAWGQGTTVTVSS
VL: DIVMTQSPLSLPVTPGEPASISCQAGQELVHMNRNTYLHWYQQKPGQAPRLLIYKVSNRFPGVPDRFSGSGSGTDFTLKISRVEAEDVGVYYCAQGTSVPFTFGQGTKLEIK
notes: Dual-Ig
B4: H183/L072 VL R54Q (antibody, name in Kabat numbering, V domains shown)
VH: QVQLVESGGGLVQPGRSLRLSCAASGFTFSNAWMHWVRQAPGKGLEWVAQIKDKGNAYAAYYAPSVKGRFTISRDDSKNSIYLQMNSLKTEDTAVYYCHYVHYASASTVLPAFGVDAWGQGTTVTVSS
VL: DIVMTQSPLSLPVTPGEPASISCQASQELVHMNRNTYLHWYQQKPGQAPRLLIYKVSNQFPGVPDRFSGSGSGTDFTLKISRVEAEDVGVYYCAQGTSVPFTFGQGTKLEIK
notes: Dual-Ig
B5: H183/L072 VL R54S (antibody, name in Kabat numbering, V domains shown)
VH: QVQLVESGGGLVQPGRSLRLSCAASGFTFSNAWMHWVRQAPGKGLEWVAQIKDKGNAYAAYYAPSVKGRFTISRDDSKNSIYLQMNSLKTEDTAVYYCHYVHYASASTVLPAFGVDAWGQGTTVTVSS
VL: DIVMTQSPLSLPVTPGEPASISCQASQELVHMNRNTYLHWYQQKPGQAPRLLIYKVSNSFPGVPDRFSGSGSGTDFTLKISRVEAEDVGVYYCAQGTSVPFTFGQGTKLEIK
notes: Dual-Ig
B6: H183/L072 VL R54T (antibody, name in Kabat numbering, V domains shown)
VH: QVQLVESGGGLVQPGRSLRLSCAASGFTFSNAWMHWVRQAPGKGLEWVAQIKDKGNAYAAYYAPSVKGRFTISRDDSKNSIYLQMNSLKTEDTAVYYCHYVHYASASTVLPAFGVDAWGQGTTVTVSS
VL: DIVMTQSPLSLPVTPGEPASISCQASQELVHMNRNTYLHWYQQKPGQAPRLLIYKVSNTFPGVPDRFSGSGSGTDFTLKISRVEAEDVGVYYCAQGTSVPFTFGQGTKLEIK
notes: Dual-Ig
B7: H183/L072 VL R54L (antibody, name in Kabat numbering, V domains shown)
VH: QVQLVESGGGLVQPGRSLRLSCAASGFTFSNAWMHWVRQAPGKGLEWVAQIKDKGNAYAAYYAPSVKGRFTISRDDSKNSIYLQMNSLKTEDTAVYYCHYVHYASASTVLPAFGVDAWGQGTTVTVSS
VL: DIVMTQSPLSLPVTPGEPASISCQASQELVHMNRNTYLHWYQQKPGQAPRLLIYKVSNLFPGVPDRFSGSGSGTDFTLKISRVEAEDVGVYYCAQGTSVPFTFGQGTKLEIK
notes: Dual-Ig
B8: H183/L072 VL R54M (antibody, name in Kabat numbering, V domains shown)
VH: QVQLVESGGGLVQPGRSLRLSCAASGFTFSNAWMHWVRQAPGKGLEWVAQIKDKGNAYAAYYAPSVKGRFTISRDDSKNSIYLQMNSLKTEDTAVYYCHYVHYASASTVLPAFGVDAWGQGTTVTVSS
VL: DIVMTQSPLSLPVTPGEPASISCQASQELVHMNRNTYLHWYQQKPGQAPRLLIYKVSNMFPGVPDRFSGSGSGTDFTLKISRVEAEDVGVYYCAQGTSVPFTFGQGTKLEIK
notes: Dual-Ig
B9: H183/L072 VL R54W (antibody, name in Kabat numbering, V domains shown)
VH: QVQLVESGGGLVQPGRSLRLSCAASGFTFSNAWMHWVRQAPGKGLEWVAQIKDKGNAYAAYYAPSVKGRFTISRDDSKNSIYLQMNSLKTEDTAVYYCHYVHYASASTVLPAFGVDAWGQGTTVTVSS
VL: DIVMTQSPLSLPVTPGEPASISCQASQELVHMNRNTYLHWYQQKPGQAPRLLIYKVSNWFPGVPDRFSGSGSGTDFTLKISRVEAEDVGVYYCAQGTSVPFTFGQGTKLEIK
notes: Dual-Ig
B10: H183/L072 VL S26D (antibody, name in Kabat numbering, V domains shown)
VH: QVQLVESGGGLVQPGRSLRLSCAASGFTFSNAWMHWVRQAPGKGLEWVAQIKDKGNAYAAYYAPSVKGRFTISRDDSKNSIYLQMNSLKTEDTAVYYCHYVHYASASTVLPAFGVDAWGQGTTVTVSS
VL: DIVMTQSPLSLPVTPGEPASISCQADQELVHMNRNTYLHWYQQKPGQAPRLLIYKVSNRFPGVPDRFSGSGSGTDFTLKISRVEAEDVGVYYCAQGTSVPFTFGQGTKLEIK
notes: Dual-Ig
B11: H183/L072 VL S26E (antibody, name in Kabat numbering, V domains shown)
VH: QVQLVESGGGLVQPGRSLRLSCAASGFTFSNAWMHWVRQAPGKGLEWVAQIKDKGNAYAAYYAPSVKGRFTISRDDSKNSIYLQMNSLKTEDTAVYYCHYVHYASASTVLPAFGVDAWGQGTTVTVSS
VL: DIVMTQSPLSLPVTPGEPASISCQAEQELVHMNRNTYLHWYQQKPGQAPRLLIYKVSNRFPGVPDRFSGSGSGTDFTLKISRVEAEDVGVYYCAQGTSVPFTFGQGTKLEIK
notes: Dual-Ig
B12: H183/L072 VL R54V (antibody, name in Kabat numbering, V domains shown)
VH: QVQLVESGGGLVQPGRSLRLSCAASGFTFSNAWMHWVRQAPGKGLEWVAQIKDKGNAYAAYYAPSVKGRFTISRDDSKNSIYLQMNSLKTEDTAVYYCHYVHYASASTVLPAFGVDAWGQGTTVTVSS
VL: DIVMTQSPLSLPVTPGEPASISCQASQELVHMNRNTYLHWYQQKPGQAPRLLIYKVSNVFPGVPDRFSGSGSGTDFTLKISRVEAEDVGVYYCAQGTSVPFTFGQGTKLEIK
notes: Dual-Ig
B13: H183/L072 VL S26F (antibody, name in Kabat numbering, V domains shown)
VH: QVQLVESGGGLVQPGRSLRLSCAASGFTFSNAWMHWVRQAPGKGLEWVAQIKDKGNAYAAYYAPSVKGRFTISRDDSKNSIYLQMNSLKTEDTAVYYCHYVHYASASTVLPAFGVDAWGQGTTVTVSS
VL: DIVMTQSPLSLPVTPGEPASISCQAFQELVHMNRNTYLHWYQQKPGQAPRLLIYKVSNRFPGVPDRFSGSGSGTDFTLKISRVEAEDVGVYYCAQGTSVPFTFGQGTKLEIK
notes: Dual-Ig
B14: H183/L072 VL R54P (antibody, name in Kabat numbering, V domains shown)
VH: QVQLVESGGGLVQPGRSLRLSCAASGFTFSNAWMHWVRQAPGKGLEWVAQIKDKGNAYAAYYAPSVKGRFTISRDDSKNSIYLQMNSLKTEDTAVYYCHYVHYASASTVLPAFGVDAWGQGTTVTVSS
VL: DIVMTQSPLSLPVTPGEPASISCQASQELVHMNRNTYLHWYQQKPGQAPRLLIYKVSNPFPGVPDRFSGSGSGTDFTLKISRVEAEDVGVYYCAQGTSVPFTFGQGTKLEIK
notes: Dual-Ig

T1 sequence (chain, as listed by the source limits assumed): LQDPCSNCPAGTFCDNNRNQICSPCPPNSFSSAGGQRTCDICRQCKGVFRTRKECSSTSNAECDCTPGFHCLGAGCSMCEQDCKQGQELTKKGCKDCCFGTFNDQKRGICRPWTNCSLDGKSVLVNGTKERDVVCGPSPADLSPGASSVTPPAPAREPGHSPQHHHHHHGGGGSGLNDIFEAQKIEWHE

This experiment concerns the target T1, Human CD137 ECD (human).
T1 construct: entry includes C-terminal His-tag and biotin acceptor peptide; also called human CD137 extracellular domain; 4-1BB
The experiment can be described thus: Biacore SPR, vs parent H183/L072.
As to B1, the “fold change of affinity” value turned out to be 1 fold. For B2 the value was 0.2 fold; for B3, 0.9 fold. For B4 the value was 0.8 fold; for B5, 0.9 fold. For B6 the value was 2.5 fold; for B7, 0.9 fold.

Regarding B8, the “fold change of affinity” value amounted to 0.5 fold.

Regarding B9, the “fold change of affinity” value is 0.4 fold. For B10 the value was 0.8 fold; for B11, 0.8 fold. B12: the “fold change of affinity” value came out at 1.3 fold. Consider B13, for which the “fold change of affinity” value came to 0.2 fold. For B14 the value was 0.9 fold.

For the origin of these results see patent publication US20210388087A1 (Chugai, published 2021).
